Experiments:
[1] = system: medaka EP-1 protease; test: Inhibitor assay, enzyme activity measured using GD4K-βNA as a substrate; format: biochemical, medaka (Oryzias latipes); details: inhibitor 0.1 mg/ml; GD4K-βNA substrate; 10 min preincubation
[2] = system: medaka EP-2 protease; test: as above; format: biochemical, medaka (Oryzias latipes); details: inhibitor 0.1 mg/ml; GD4K-βNA substrate; 10 min preincubation

Chain of medaka EP-1 protease (as listed by the source): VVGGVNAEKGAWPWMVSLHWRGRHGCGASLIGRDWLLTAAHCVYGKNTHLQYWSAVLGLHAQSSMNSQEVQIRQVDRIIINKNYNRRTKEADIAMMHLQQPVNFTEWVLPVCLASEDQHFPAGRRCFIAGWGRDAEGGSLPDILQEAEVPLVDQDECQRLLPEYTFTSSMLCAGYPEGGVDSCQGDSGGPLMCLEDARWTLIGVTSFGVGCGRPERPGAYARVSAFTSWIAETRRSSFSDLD

B1: SBTI (protein)
chain: DFVLDNEGNPLENGGTYYILSDITAFGGIRAAPTGNERCPLTVVQSRNELDKGIGTIISSPYRIRFIAEGHPLSLKFDSFAVIMLCVGIPTEWSVVEDLPEGPAVKIGENKDAMDGWFRLERVSDDEFNNYKLVFCPQQAEDDKCGDIGISIDHDDGTRRLVVSKNKPLVVQFQKLDKESL
Inhibition (%) EP-1 [1]: 99%
Inhibition (%) EP-2 [2]: 99%

Source: patent US8013137B2, “Modified enteropeptidase protein” (National University Corporation Hokkaido University, priority 2006, dated 2011)
